Biological target: T1, human Tetraspanin 33 (TSPAN33) (human, UniProt Q86UF1 1-283)
T1 sequence: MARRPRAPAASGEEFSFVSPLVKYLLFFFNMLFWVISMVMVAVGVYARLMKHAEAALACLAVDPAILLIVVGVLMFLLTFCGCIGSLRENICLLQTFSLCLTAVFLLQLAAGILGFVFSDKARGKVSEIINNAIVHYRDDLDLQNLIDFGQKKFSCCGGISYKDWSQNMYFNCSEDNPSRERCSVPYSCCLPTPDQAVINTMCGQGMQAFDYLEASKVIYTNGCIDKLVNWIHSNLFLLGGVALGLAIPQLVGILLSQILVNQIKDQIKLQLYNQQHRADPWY
Test: flow cytometry on human PBMCs activated with CD40L and IL-4; detection with anti-mouse IgG PE
Description: Human peripheral blood mononuclear cells (PBMCs) were isolated in aseptic conditions through a gradient of Ficoll-Paque PLUS (GE Healthcare) according manufacturer instructions. The PBMCs were counted and adjusted in complete RPMI-1640 (10% fetal bovine serum, […] Penicillin, and 1 mg/ml Streptomycin) to a cell density of 1×10⁶ cells/mL. Cells were activated by adding CD40L (TNFSF5; 1 μg/mL) and recombinant human IL-4 (100 U/mL) to the culture. The cells were incubated overnight at 37° C. with 5% CO₂.
The next day the cells were washed with Biolegend's Cell Staining Buffer, and 1×10⁶ cells were stained for 15 minutes in the dark with anti-human CD20-APC and purified anti-human TSPAN33 or purified mouse IgG2b, k isotype control, in a volume of 100 μL. Cells were washed twice with 3 mL of Cell Staining Buffer and then stained for 15 minutes in the dark with anti-mouse IgG PE, in a volume of 100 μL. Then the cells were washed twice with 3 mL of Cell Staining Buffer and analyzed on a flow cytometer. 7-AAD Viability Staining Solution was used to exclude dead cells from analysis.

B1: AB1, mouse anti-TSPAN33 monoclonal antibody (antibody, V domains shown)
VH: EVKLVESGGGLVQPGGSLSLSCAASGFTFTDYYMTWVRQPPGKALEWLVFIRNKANGYTTEYSASVKGRFTISRDNSQSILYLQMNALRAEDSATYYCARYLQTGNFDYWGQGTTLTVSS
VL: EIQMIQTTSSLTASLGDRVTISCRASQDISNFLNWYQQKPDGTIKLLIYFTSRLHSGVPSRFSGSGSGTDYSLTISNLEQEDIATYFCQQGYTVPPTFGGGTKLEIK
notes: Murine monoclonal antibody from a hybridoma; also called AB (clone) Number 1
binding result: binds

— patent US20210095018A1 (BIOLEGEND, published 2021)
